Substitutions are numbered along the chain they refer to. In names and notes the source's numbering stands.
How the values were obtained:
Rhodococcus sp. [1] = assay: Activity of Rhodococcus sp. M777 Endoglycoceramidase 2 containing wild type sequence E351S
Rhodococcus sp. [2] = assay: Ratio of Kcat to Km of Activity of Rhodococcus sp. M777 Endoglycoceramidase 2 containing wild type sequence E351S
[3] = Inhibition of Rhodococcus sp. M777 Endoglycoceramidase 2 containing wild type sequence E351S
[4] = substrate: CCCCCCCCCCCCCC[C@@H](O)[C@@H](O)[C@@H](N)CO; assay: Ratio of Kcat to Km of Activity of Rhodococcus sp. M777 Endoglycoceramidase 2 V101M K200R mutant
[5] = substrate: CCCCCCCCCCCCC/C=C/[C@@H](O)[C@@H](N)CO; assay: (§1) Ratio of Kcat to Km of Activity of Rhodococcus sp. M777 Endoglycoceramidase 2 G370E mutant
[6] = substrate: CC(=O)N[C@H]1[C@H](O[C@@H]2[C@H](O[C@]3(C(=O)O)C[C@H](O)[C@@H](NC(C)=O)[C@H]([C@@H](O)[C@@H](O)CO)O3)[C@@H](O)[C@H](O[C@H]3[C@H](O)[C@@H](O)[C@@H](F)O[C@@H]3CO)O[C@@H]2CO)O[C@H](CO)[C@H](O)[C@@H]1O[C@@H]1O[C@H](CO)[C@H](O)[C@H](O)[C@H]1O; assay: as §1
[7] = substrate: CCCCCCCCCCCCC/C=C/[C@@H](O)[C@@H](N)CO; assay: (§2) Activity of Rhodococcus sp. M777 Endoglycoceramidase 2 G370E mutant
[8] = substrate: CC(=O)N[C@H]1[C@H](O[C@@H]2[C@H](O[C@]3(C(=O)O)C[C@H](O)[C@@H](NC(C)=O)[C@H]([C@@H](O)[C@@H](O)CO)O3)[C@@H](O)[C@H](O[C@H]3[C@H](O)[C@@H](O)[C@@H](F)O[C@@H]3CO)O[C@@H]2CO)O[C@H](CO)[C@H](O)[C@@H]1O[C@@H]1O[C@H](CO)[C@H](O)[C@H](O)[C@H]1O; assay: as §2
[9] = substrate: CCCCCCCCCCCCC/C=C/[C@@H](O)[C@@H](N)CO; assay: (§3) Activity of Rhodococcus sp. M777 Endoglycoceramidase 2 V269I mutant
[10] = substrate: CC(=O)N[C@H]1[C@H](O[C@@H]2[C@H](O[C@]3(C(=O)O)C[C@H](O)[C@@H](NC(C)=O)[C@H]([C@@H](O)[C@@H](O)CO)O3)[C@@H](O)[C@H](O[C@H]3[C@H](O)[C@@H](O)[C@@H](F)O[C@@H]3CO)O[C@@H]2CO)O[C@H](CO)[C@H](O)[C@@H]1O[C@@H]1O[C@H](CO)[C@H](O)[C@H](O)[C@H]1O; assay: as §3
[11] = substrate: CCCCCCCCCCCCC/C=C/[C@@H](O)[C@@H](N)CO; assay: (§4) Ratio of Kcat to Km of Activity of Rhodococcus sp. M777 Endoglycoceramidase 2 V269I mutant
[12] = substrate: CC(=O)N[C@H]1[C@H](O[C@@H]2[C@H](O[C@]3(C(=O)O)C[C@H](O)[C@@H](NC(C)=O)[C@H]([C@@H](O)[C@@H](O)CO)O3)[C@@H](O)[C@H](O[C@H]3[C@H](O)[C@@H](O)[C@@H](F)O[C@@H]3CO)O[C@@H]2CO)O[C@H](CO)[C@H](O)[C@@H]1O[C@@H]1O[C@H](CO)[C@H](O)[C@H](O)[C@H]1O; assay: as §4
[13] = substrate: CCCCCCCCCCCCC/C=C/[C@@H](O)[C@@H](N)CO; assay: (§5) Ratio of Kcat to Km of Activity of Rhodococcus sp. M777 Endoglycoceramidase 2 R177H mutant
[14] = substrate: CC(=O)N[C@H]1[C@H](O[C@@H]2[C@H](O[C@]3(C(=O)O)C[C@H](O)[C@@H](NC(C)=O)[C@H]([C@@H](O)[C@@H](O)CO)O3)[C@@H](O)[C@H](O[C@H]3[C@H](O)[C@@H](O)[C@@H](F)O[C@@H]3CO)O[C@@H]2CO)O[C@H](CO)[C@H](O)[C@@H]1O[C@@H]1O[C@H](CO)[C@H](O)[C@H](O)[C@H]1O; assay: as §5
[15] = substrate: CCCCCCCCCCCCC/C=C/[C@@H](O)[C@@H](N)CO; assay: (§6) Activity of Rhodococcus sp. M777 Endoglycoceramidase 2 R177H mutant
[16] = substrate: CC(=O)N[C@H]1[C@H](O[C@@H]2[C@H](O[C@]3(C(=O)O)C[C@H](O)[C@@H](NC(C)=O)[C@H]([C@@H](O)[C@@H](O)CO)O3)[C@@H](O)[C@H](O[C@H]3[C@H](O)[C@@H](O)[C@@H](F)O[C@@H]3CO)O[C@@H]2CO)O[C@H](CO)[C@H](O)[C@@H]1O[C@@H]1O[C@H](CO)[C@H](O)[C@H](O)[C@H]1O; assay: as §6
[17] = substrate: CCCCCCCCCCCCC/C=C/[C@@H](O)[C@@H](N)CO; assay: (§7) Activity of Rhodococcus sp. M777 Endoglycoceramidase 2 A153T D314Y mutant
[18] = substrate: CC(=O)N[C@H]1[C@H](O[C@@H]2[C@H](O[C@]3(C(=O)O)C[C@H](O)[C@@H](NC(C)=O)[C@H]([C@@H](O)[C@@H](O)CO)O3)[C@@H](O)[C@H](O[C@H]3[C@H](O)[C@@H](O)[C@@H](F)O[C@@H]3CO)O[C@@H]2CO)O[C@H](CO)[C@H](O)[C@@H]1O[C@@H]1O[C@H](CO)[C@H](O)[C@H](O)[C@H]1O; assay: as §7
[19] = substrate: CCCCCCCCCCCCC/C=C/[C@@H](O)[C@@H](N)CO; assay: (§8) Ratio of Kcat to Km of Activity of Rhodococcus sp. M777 Endoglycoceramidase 2 A153T D314Y mutant
[20] = substrate: CC(=O)N[C@H]1[C@H](O[C@@H]2[C@H](O[C@]3(C(=O)O)C[C@H](O)[C@@H](NC(C)=O)[C@H]([C@@H](O)[C@@H](O)CO)O3)[C@@H](O)[C@H](O[C@H]3[C@H](O)[C@@H](O)[C@@H](F)O[C@@H]3CO)O[C@@H]2CO)O[C@H](CO)[C@H](O)[C@@H]1O[C@@H]1O[C@H](CO)[C@H](O)[C@H](O)[C@H]1O; assay: as §8
[21] = substrate: CCCCCCCCCCCCC/C=C/[C@@H](O)[C@@H](N)CO; assay: (§9) Activity of Rhodococcus sp. M777 Endoglycoceramidase 2 V269I G370R mutant
[22] = substrate: CC(=O)N[C@H]1[C@H](O[C@@H]2[C@H](O[C@]3(C(=O)O)C[C@H](O)[C@@H](NC(C)=O)[C@H]([C@@H](O)[C@@H](O)CO)O3)[C@@H](O)[C@H](O[C@H]3[C@H](O)[C@@H](O)[C@@H](F)O[C@@H]3CO)O[C@@H]2CO)O[C@H](CO)[C@H](O)[C@@H]1O[C@@H]1O[C@H](CO)[C@H](O)[C@H](O)[C@H]1O; assay: as §9
[23] = substrate: CCCCCCCCCCCCC/C=C/[C@@H](O)[C@@H](N)CO; assay: (§10) Ratio of Kcat to Km of Activity of Rhodococcus sp. M777 Endoglycoceramidase 2 V269I G370R mutant
[24] = substrate: CC(=O)N[C@H]1[C@H](O[C@@H]2[C@H](O[C@]3(C(=O)O)C[C@H](O)[C@@H](NC(C)=O)[C@H]([C@@H](O)[C@@H](O)CO)O3)[C@@H](O)[C@H](O[C@H]3[C@H](O)[C@@H](O)[C@@H](F)O[C@@H]3CO)O[C@@H]2CO)O[C@H](CO)[C@H](O)[C@@H]1O[C@@H]1O[C@H](CO)[C@H](O)[C@H](O)[C@H]1O; assay: as §10
[25] = substrate: CCCCCCCCCCCCCC[C@@H](O)[C@@H](O)[C@@H](N)CO; assay: Ratio of Kcat to Km of Activity of Rhodococcus sp. M777 Endoglycoceramidase 2 N148S mutant

CC(=O)N[C@H]1[C@H](O[C@@H]2[C@H](O[C@]3(C(=O)O)C[C@H](O)[C@@H](NC(C)=O)[C@H]([C@@H](O)[C@@H](O)CO)O3)[C@@H](O)[C@H](O[C@H]3[C@H](O)[C@@H](O)[C@@H](F)O[C@@H]3CO)O[C@@H]2CO)O[C@H](CO)[C@H](O)[C@@H]1O[C@@H]1O[C@H](CO)[C@H](O)[C@H](O)[C@H]1O
Km (Rhodococcus sp. [1]): 770 µM | kcat (Rhodococcus sp. [1]): 0.21 s⁻¹ | kcat/Km (Rhodococcus sp. [2]): 273 M⁻¹ s⁻¹

CCCCCCCCCCCCCC[C@@H](O)[C@@H](O)[C@@H](N)CO [PHYTOSPHINGOSINE]
Ki [3]: 850 µM

CCCCCCCCCCCCC/C=C/[C@@H](O)[C@@H](N)CO
Km (Rhodococcus sp. [1]): 410 µM | kcat (Rhodococcus sp. [1]): 0.19 s⁻¹ | kcat/Km (Rhodococcus sp. [2]): 463 M⁻¹ s⁻¹

B1: Endoglycoceramidase II (Rhodococcus sp), A0ACD6B832 V101M,K200R (protein)
chain: MRRTRLVSLIVTGSLVFGGGVAAAQSSLAASGSGSGSGTALTPSYLKDDDGRSLILRGFNTASSAKSAPDGMPQFTEADLAREYADMGTNFVRFLISWRSMEPAPGVYDQQYLDRVEDRVGWYAERGYKVMLDMHQDVYSGAITPEGNSGNGAGAIGNGAPAWATYMDGLPVEPQPRWELYYIQPGVMRAFDNFWNTTGRHPELVEHYAKAWRAVADRFADNDAVVAYDLMNEPFGGSLQGPAFEAGPLAAMYQRTTDAIRQVDQDTWVCVAPQAIGVNQGLPSGLTKIDDPRAGQQRIAYCPHLYPLPLDIGDGHEGLARTLTDVTIDAWRANTAHTARVLGDVPIILGEFGLDTTLPGARDYIERVYGTAREMGAGVSYWSSDPGPWGPYLPDGTQTLLVDTLNKPYPRAVAGTPTEWSSTSDRLQLTIEPDAAITAPTEIYLPEAGFPGDVHVEGADVVGWDRQSRLLTVRTPADSGNVTVTVTPAA
kcat/Km [4]: 3.1 M⁻¹ s⁻¹

B2: Endoglycoceramidase II (Rhodococcus sp), A0ACD6B832 G370E (protein)
chain: B1 chain with M101V, R200K, G370E
kcat/Km [5]: 418 M⁻¹ s⁻¹ | kcat/Km [6]: 247 M⁻¹ s⁻¹ | Km [7]: 670 µM | kcat [7]: 0.28 s⁻¹ | Km [8]: 850 µM | kcat [8]: 0.21 s⁻¹

B3: Endoglycoceramidase II (Rhodococcus sp), A0ACD6B832 V269I (protein)
chain: B1 chain with M101V, R200K, V269I
Km [9]: 810 µM | kcat [9]: 0.18 s⁻¹ | Km [10]: 600 µM | kcat [10]: 0.13 s⁻¹ | kcat/Km [11]: 222 M⁻¹ s⁻¹ | kcat/Km [12]: 217 M⁻¹ s⁻¹

B4: Endoglycoceramidase II (Rhodococcus sp), A0ACD6B832 R177H (protein)
chain: B1 chain with M101V, R177H, R200K
kcat/Km [13]: 353 M⁻¹ s⁻¹ | kcat/Km [14]: 188 M⁻¹ s⁻¹ | Km [15]: 170 µM | kcat [15]: 0.06 s⁻¹ | Km [16]: 320 µM | kcat [16]: 0.06 s⁻¹

B5: Endoglycoceramidase II (Rhodococcus sp), A0ACD6B832 A153T,D314Y (protein)
chain: B1 chain with M101V, A153T, R200K, D314Y
Km [17]: 1600 µM | kcat [17]: 0.64 s⁻¹ | Km [18]: 270 µM | kcat [18]: 0.3 s⁻¹ | kcat/Km [19]: 407 M⁻¹ s⁻¹ | kcat/Km [20]: 1110 M⁻¹ s⁻¹

B6: Endoglycoceramidase II (Rhodococcus sp), A0ACD6B832 V269I,G370R (protein)
chain: B1 chain with M101V, R200K, V269I, G370R
Km [21]: 480 µM | kcat [21]: 0.26 s⁻¹ | Km [22]: 890 µM | kcat [22]: 0.17 s⁻¹ | kcat/Km [23]: 542 M⁻¹ s⁻¹ | kcat/Km [24]: 191 M⁻¹ s⁻¹

B7: Endoglycoceramidase II (Rhodococcus sp), A0ACD6B832 N148S (protein)
chain: B1 chain with M101V, N148S, R200K
kcat/Km [25]: 2.1 M⁻¹ s⁻¹

Source: ChEMBL document CHEMBL1212722, “Designer enzymes for glycosphingolipid synthesis by directed evolution” (Nat Chem Biol, 2009)
